Experimental data from paper PMC9482650, “Quantitative fragmentomics allow affinity mapping of interactomes” (Nature Communications, 2022).

T1: SIPA1L2, Q9P2F8
T1 sequence (Q9P2F8 945-1036, limits assumed, looked up): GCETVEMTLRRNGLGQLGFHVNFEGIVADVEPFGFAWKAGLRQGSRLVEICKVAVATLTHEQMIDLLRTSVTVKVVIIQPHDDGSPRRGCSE

T2: SNTB1, Q13884
T2 sequence (Q13884 107-205, limits assumed, looked up): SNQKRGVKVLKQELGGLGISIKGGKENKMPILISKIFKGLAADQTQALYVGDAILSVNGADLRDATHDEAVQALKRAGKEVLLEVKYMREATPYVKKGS

T3: RAPGEF6, Q8TEU7
T3 sequence (Q8TEU7 525-625, limits assumed, looked up): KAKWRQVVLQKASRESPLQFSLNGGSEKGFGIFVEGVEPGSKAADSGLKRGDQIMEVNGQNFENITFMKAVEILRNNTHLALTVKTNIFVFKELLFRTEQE

T4: MPP6, Q9NZW5
T4 sequence (Q9NZW5 125-219, limits assumed, looked up): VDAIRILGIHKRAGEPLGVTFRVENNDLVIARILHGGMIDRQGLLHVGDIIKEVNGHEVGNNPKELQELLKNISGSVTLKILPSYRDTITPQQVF

T5: APBA2_2, Q99767
T5 sequence (Q99767 654-744, limits assumed, looked up): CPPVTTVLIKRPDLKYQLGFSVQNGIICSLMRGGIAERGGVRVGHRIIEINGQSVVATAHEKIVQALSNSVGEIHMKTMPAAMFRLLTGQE

T6: HTRA4, P83105
T6 sequence (P83105 378-476, limits assumed, looked up): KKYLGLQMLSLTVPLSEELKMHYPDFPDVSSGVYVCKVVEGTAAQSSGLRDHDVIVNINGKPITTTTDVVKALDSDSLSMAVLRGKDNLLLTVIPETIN

T7: MPDZ_5, O75970
T7 sequence (O75970 695-796, limits assumed, looked up): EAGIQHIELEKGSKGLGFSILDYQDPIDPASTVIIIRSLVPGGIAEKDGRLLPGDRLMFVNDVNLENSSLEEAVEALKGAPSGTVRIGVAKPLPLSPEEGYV

T8: LNX2_3, Q8N448
T8 sequence (Q8N448 463-564, limits assumed, looked up): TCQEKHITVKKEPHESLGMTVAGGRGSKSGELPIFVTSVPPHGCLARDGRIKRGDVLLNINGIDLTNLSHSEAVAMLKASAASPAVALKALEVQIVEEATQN

T9: GRIP1_3, Q9Y3R0
T9 sequence (Q9Y3R0 247-346, limits assumed, looked up): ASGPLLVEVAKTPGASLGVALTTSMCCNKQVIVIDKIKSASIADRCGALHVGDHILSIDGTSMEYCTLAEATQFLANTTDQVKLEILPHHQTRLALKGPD

T10: TIAM2, Q8IVF5
T10 sequence (Q8IVF5 885-986, limits assumed, looked up): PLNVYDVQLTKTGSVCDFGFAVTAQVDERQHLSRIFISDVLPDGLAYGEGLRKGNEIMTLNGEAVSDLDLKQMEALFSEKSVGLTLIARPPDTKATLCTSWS

T11: LRRC7, Q96NW7
T11 sequence (Q96NW7 1440-1537, limits assumed, looked up): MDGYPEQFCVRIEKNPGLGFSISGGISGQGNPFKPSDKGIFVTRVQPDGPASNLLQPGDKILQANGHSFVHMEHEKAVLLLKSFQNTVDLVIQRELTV


Legend:
Test in all cases: holdup assay
Parameters in all cases: key: below the threshold = too weak to quantify, mostly under pKd 3.1 to 4
Details in all cases: plain residues with an end cap or a label only (N-terminal biotin on a linker: ado-ado)
[1] = biological target: T1, SIPA1L2, Q9P2F8
[2] = biological target: T2, SNTB1, Q13884
[3] = biological target: MAGI2_2, Q86UL8
Chain of MAGI2_2, Q86UL8 (Q86UL8 410-522): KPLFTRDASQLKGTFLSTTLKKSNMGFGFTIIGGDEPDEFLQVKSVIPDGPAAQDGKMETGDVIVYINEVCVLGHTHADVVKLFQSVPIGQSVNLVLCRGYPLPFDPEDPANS

[4] = biological target: T3, RAPGEF6, Q8TEU7
[5] = biological target: MAST1, Q9Y2H9
Chain of MAST1, Q9Y2H9 (Q9Y2H9 962-1065): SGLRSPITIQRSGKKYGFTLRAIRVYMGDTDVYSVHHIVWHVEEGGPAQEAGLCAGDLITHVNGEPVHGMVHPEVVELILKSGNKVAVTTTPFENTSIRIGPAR

[6] = biological target: T4, MPP6, Q9NZW5
[7] = biological target: T5, APBA2_2, Q99767
[8] = biological target: DLG4_3, P78352
Chain of DLG4_3, P78352 (P78352 306-403): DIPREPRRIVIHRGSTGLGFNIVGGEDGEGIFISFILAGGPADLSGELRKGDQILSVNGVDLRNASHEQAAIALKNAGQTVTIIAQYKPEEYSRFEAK

[9] = biological target: FRMPD2_1, Q68DX3
Chain of FRMPD2_1, Q68DX3 (Q68DX3 770-861): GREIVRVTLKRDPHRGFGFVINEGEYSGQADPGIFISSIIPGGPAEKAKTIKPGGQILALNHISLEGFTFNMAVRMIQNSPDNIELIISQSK

[10] = biological target: T6, HTRA4, P83105
[11] = biological target: T7, MPDZ_5, O75970
[12] = biological target: IL16_1, Q14005
Chain of IL16_1, Q14005 (Q14005 210-306): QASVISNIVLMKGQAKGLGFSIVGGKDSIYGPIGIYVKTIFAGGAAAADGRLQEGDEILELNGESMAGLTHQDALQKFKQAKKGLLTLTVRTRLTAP

[13] = biological target: PDLIM1, O00151
Chain of PDLIM1, O00151 (O00151 1-87): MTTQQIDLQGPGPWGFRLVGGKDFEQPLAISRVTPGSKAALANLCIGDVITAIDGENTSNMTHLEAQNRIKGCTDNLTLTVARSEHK

[14] = biological target: DLG1_1, Q12959
[15] = biological target: GRIP2_5, Q9C0E4
Chain of GRIP2_5, Q9C0E4 (Q9C0E4 544-642): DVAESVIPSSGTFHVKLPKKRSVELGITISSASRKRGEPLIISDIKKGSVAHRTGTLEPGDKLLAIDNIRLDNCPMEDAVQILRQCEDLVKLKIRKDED

[16] = biological target: T8, LNX2_3, Q8N448
[17] = biological target: T9, GRIP1_3, Q9Y3R0
[18] = biological target: FRMPD2_2, Q68DX3
Chain of FRMPD2_2, Q68DX3 (Q68DX3 944-1038): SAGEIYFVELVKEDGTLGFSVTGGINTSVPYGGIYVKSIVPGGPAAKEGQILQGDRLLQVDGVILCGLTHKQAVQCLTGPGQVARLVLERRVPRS

[19] = biological target: HTRA1, Q92743
Chain of HTRA1, Q92743 (Q92743 360-477): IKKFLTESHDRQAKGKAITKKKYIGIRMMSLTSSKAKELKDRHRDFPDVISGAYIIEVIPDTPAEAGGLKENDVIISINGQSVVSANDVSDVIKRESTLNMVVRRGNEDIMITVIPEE

[20] = biological target: T10, TIAM2, Q8IVF5
[21] = biological target: PICK1, Q9NRD5
Chain of PICK1, Q9NRD5 (Q9NRD5 17-115): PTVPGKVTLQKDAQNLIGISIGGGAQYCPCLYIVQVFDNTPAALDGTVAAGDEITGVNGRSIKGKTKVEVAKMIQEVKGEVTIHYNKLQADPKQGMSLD

[22] = biological target: LDB3, O75112
Chain of LDB3, O75112 (O75112 1-94): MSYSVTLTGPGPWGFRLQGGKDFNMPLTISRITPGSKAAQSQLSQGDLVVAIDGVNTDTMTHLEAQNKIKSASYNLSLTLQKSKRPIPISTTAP

[23] = biological target: T11, LRRC7, Q96NW7
[24] = biological target: PTPN3, P26045
Chain of PTPN3, P26045 (P26045 505-587): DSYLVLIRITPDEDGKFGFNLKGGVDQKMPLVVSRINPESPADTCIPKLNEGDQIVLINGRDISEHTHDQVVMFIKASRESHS

[25] = biological target: DLG4_1, P78352
Chain of DLG4_1, P78352 (P78352 62-152): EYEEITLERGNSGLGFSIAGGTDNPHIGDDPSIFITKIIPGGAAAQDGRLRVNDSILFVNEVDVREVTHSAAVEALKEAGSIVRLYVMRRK

[26] = biological target: MAGI2_3, Q86UL8
Chain of MAGI2_3, Q86UL8 (Q86UL8 600-682): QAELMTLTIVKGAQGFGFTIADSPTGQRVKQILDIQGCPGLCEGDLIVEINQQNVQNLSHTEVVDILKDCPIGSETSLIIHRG

[27] = biological target: NHERF2_2, Q15599
Chain of NHERF2_2, Q15599 (Q15599 142-238): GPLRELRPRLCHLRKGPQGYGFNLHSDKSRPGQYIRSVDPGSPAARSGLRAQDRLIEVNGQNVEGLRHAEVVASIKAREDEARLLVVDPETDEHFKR

| Binder | pKd [1] | pKd [2] | pKd [3] | pKd [4] | pKd [5] | pKd [6] | pKd [7] | pKd [8] | pKd [9] | pKd [10] | pKd [11] | pKd [12] | pKd [13] | pKd [14] | pKd [15] | pKd [16] | pKd [17] | pKd [18] | pKd [19] | pKd [20] | further results |
| --- | --- | --- | --- | --- | --- | --- | --- | --- | --- | --- | --- | --- | --- | --- | --- | --- | --- | --- | --- | --- | --- |
| NLQEHSTTSV [RSBN1, Q5VWQ0] | below the threshold | 3.99 | 3.89 | below the threshold | 4.76 | 3.69 | below the threshold | 3.59 | below the threshold | below the threshold | below the threshold | below the threshold | below the threshold | 3.5 | below the threshold | below the threshold | below the threshold | 3.97 | 3.74 | below the threshold | pKd [21]: below the threshold; pKd [22]: below the threshold; pKd [23]: below the threshold; pKd [24]: 4.49; pKd [25]: 3.84; pKd [26]: below the threshold; pKd [27]: 3.59 |
| TGLWKSETTV [ADGRA2, Q96PE1] | below the threshold | 4.55 | 5.37 | below the threshold | 4.68 | 3.85 | below the threshold | 4.47 | below the threshold | below the threshold | below the threshold | 3.77 | below the threshold | 4.85 | below the threshold | below the threshold | below the threshold | 3.51 | 4.27 | below the threshold | pKd [21]: below the threshold; pKd [22]: below the threshold; pKd [23]: 3.56; pKd [24]: 4.54; pKd [25]: 4.94; pKd [26]: below the threshold; pKd [27]: below the threshold |
| EWTDERQSKV [GAB3, Q8WWW8] | below the threshold | 4.62 | below the threshold | below the threshold | below the threshold | below the threshold | below the threshold | below the threshold | below the threshold | below the threshold | below the threshold | 3.97 | below the threshold | 3.48 | below the threshold | below the threshold | below the threshold | 3.52 | below the threshold | below the threshold | pKd [21]: below the threshold; pKd [22]: below the threshold; pKd [23]: below the threshold; pKd [24]: 4.12; pKd [25]: 3.79; pKd [26]: below the threshold; pKd [27]: 3.8 |
| FTLPAESSEI [PLEKHG7, Q6ZR37] | below the threshold | below the threshold | below the threshold | below the threshold | 4.53 | below the threshold | below the threshold | below the threshold | below the threshold | 3.5 | below the threshold | below the threshold | below the threshold | below the threshold | below the threshold | below the threshold | below the threshold | below the threshold | 3.52 | 4.04 | pKd [21]: 3.99; pKd [22]: below the threshold; pKd [23]: below the threshold; pKd [24]: 3.55; pKd [25]: below the threshold; pKd [26]: below the threshold; pKd [27]: below the threshold |
| HLRQQGSVEV [EPHB6, O15197] | below the threshold | below the threshold | below the threshold | below the threshold | below the threshold | below the threshold | below the threshold | below the threshold | 4.14 | 4.39 | below the threshold | below the threshold | below the threshold | below the threshold | below the threshold | below the threshold | below the threshold | below the threshold | 4.59 | below the threshold | pKd [21]: below the threshold; pKd [22]: below the threshold; pKd [23]: below the threshold; pKd [24]: below the threshold; pKd [25]: 3.5; pKd [26]: below the threshold; pKd [27]: below the threshold |
